Measured values as given in patent US20220073643A1 (NANJING GENSCRIPT BIOTECH, published 2022).

What follows are binders tested against T1, human Claudin18.2 (human) (assay: cell ELISA, Claudin18.2-expressing HEK293T cells).
T1 construct: also called CLDN18.2
Procedure: To determine protein binding EC₅₀ by Cell ELISA, 96-well U-bottom microplates were pre-blocked with blocking buffer (5% MPBS, 1×PBS with 5% skim milk) overnight at 4° C. On the next day, the Claudin18.2-expressing HEK293T stable cell line was suspended at 1.5×10⁶ cells/ml in blocking buffer, added to the plate in 100 μl/well and incubated at room temperature for 1 hour.
Raw data were plotted with GraphPad Prism v6.02 software with four parameters, best-fit value program to analyze the EC₅₀.

Row | EC50 | Binder
1 | 1.01 nM | 200A4H8 (antibody, V domains shown, mouse hybridoma mAb) VH: QVQLKQSGPGLVQPSQSLSITCTVSGFSLTRYGVHWVRQSPGKGLEWLGVIWSGGNTDYNAAFISRLNIRKDNSKSQVFFKMNSLKPNDTAIYYCARAAYFGNSFDYWGQGTTLTVSS VL: DIVMTQSPSSLPVTAGEKVTMSCKSSQSLLNSGNQKNYLTWYQQKPGQPPKLLIYWASTRDSGVPDRFTGSGSGTDFTLTISSVQAEDLAVYYCQNNYIYPLTFGAGTKLELK
2 | 1.07 nM | 181C7B2 (antibody, V domains shown, mouse hybridoma mAb) VH: QVQLKQSGPGLVQPSQSLSITCTVSGFSLTYYGVHWVRQSPGKGLEWLGVIWRGGNTDYNAAFISRLSINKDNSKSQVFFKMNSLQPNDTAIYYCARAAYYGNCFDYWGQGTTLTVSS VL: DIVMTQSPSSLTVTAGEKVTMSCKSSQSLLNSGNQKNYLTWYQQKPGQPPKLLIYWASTRESGVPDRFTGSGSGTDFTLTISSVQAEDLAVYYCQNNYIYPLTFGAGTKLELK

What follows are binders tested against human Claudin18.2 (human) (assay: cell-based or functional assay).

Row | CDC % Relative activity | CDC EC50 | Binder
3 | 134% | 1.05 µg/mL | 243B4F2 (antibody, V domains shown) VH: QAYLQQSGAELVRSGASVKMSCKASGYTFTSHNLHWVKQTPGQGLEWIGYIYPGNGNTNYNQKFKGKATLTADTSSSTAYMQISSLTSEDSAVYFCTRDYYGNSFAYWGQGTLVTVSA VL: DIVMTQSPSSLTEKAGERVSMSCKSSQSLFNSGNQKNYLTWYQQKPGQPPKLLIYWASTRESGVPDRFTGSGSGTDFTLTISSVQAEDLAVYYCQNNYWFPFTFGAGTKLELK
4 | 112% | 1.26 µg/mL | 242H12D6 (antibody, V domains shown) VH: QAYLQQSGAELVRSGASVKMSCKASGYTFTSHNMHWVKQTPGQGLEWIGYIYPGNGGTNYNQKFKGKATLTADTSSSTAYMQINSLTSEDSAVYFCTRDYYGNSFAYWGQGTLVTVSA VL: DIVMTQSPSSLTEKAGERVSMSCKSSQSLFNSGNQKNYLTWYQQKPGQPPKLLIYWASTRESGVPDRFTGSGSGTDFTLTISSVQAEDLAVYYCQNDYRYPFTFGAGTKLELK
5 | 161% | 0.876 µg/mL | 248E6A7 (antibody, V domains shown) VH: QAYLQQSGAELVRSGASVKMSCRASGYTFTSHNMHWVKQTPGQGLEWIGYIYPGNGNTYYNQKFKVKATLTADTSSNTAYMQINSLTSEDSAVYFCVRDYYGNSFVYWGQGTLVTVSA VL: DVVMTQSPSSLTEKTGEKVTMTCKSSQSLLNSGNQKNYLAWYQQKPGQPPKLLIYWASTRESGVPDRFIGSGSGTDFTLTISSLQTEDLAVYYCQNNYMYPFTFGAGTKLELK
6 | 149% | 0.941 µg/mL | 243B4F7 (antibody, V domains shown) VH: QAYLQQSGAELVRSGASVKMSCKASGYTFTSHNLHWVKQTPGQGLEWIGYIYPGNGNTNYNQKFKGKATLTADTSSSTAYMQISSLTSEDSAVYFCTRDYYGNSFAYWGQGTLVTVSA VL: DIVMTQSPSSLTEKAGERVSMSCKSSQSLFNSGNQKNYLTWYQQKPGQPPKLLIYWASTRESGVPDRFTGSGSGTDFTLTISSVQAEDLAVYYCQNNYWFPFTFGAGTKLELK
7 | 625% | 0.225 µg/mL | 241H10A1 (antibody, V domains shown) VH: QVQLQQSGAELVKPGASVKLSCKASGYTFTSFGINWLRQRPEQGLEWIGWIFPGDGNSKYNENFKGKATLTTDKSSSTAYMQVTRLTSEDSAVYFCARFYYGNSFANWGQGTLVTVSA VL: DIVMTQSPSSLTVTAGEKVTMSCKSSQSLLNSGNQKNYLTWYQQKPGQPPKLLIYWAATRESGVPDRFTGSGSGTDFTLTISSVQAEDLAVYYCQNDYFYPFTFGGGTKLELK
8 | 70.5% | 2 µg/mL | 243F6D2 (antibody, V domains shown) VH: QAYLQQSGAELVRSGASVKMSCRASGYTFTSHNMHWVKQTPGQGLEWIGYIYPGNGGTYYNQKFKGKATLTADTSSSTAYMQISSLTSEDSAVYFCARDYYGNSFVYWGQGTLVTVSA VL: DVVMTQSPSSLTEKTGEKVSMSCKSSQSLLNSGNQKNYLTWYQQKPGQPPKLLIYWASTRESGVPDRFTGSGSGTDFTLTISSLQTEDLAVYYCQNNYRYPFTFGAGTKLELK
9 | 102% | 1.39 µg/mL | 244A1B8 (antibody, V domains shown) VH: QAYLQQSGAELVRSGASVKMSCKASGYTFTSHNIHWVKQTPGQGLEWIGYIYPGNGAPNYNQKFRGKATLTADTSSSTAYMQISSLTSEDSAVYFCARDYYGNSFVYWGQGTLVTVSA VL: DIVMTQSPSSLTEKAGEKVSMSCKSSQSLLNSGNQKNYLTWYQQKPGQPPKLLIYWASTRESGVPDRFTGSGSGTDFTLTISSVQAEDLAVYYCQNDYRYPFTFGAGTKLELK
10 | 787% | 0.179 µg/mL | 246B5F2 (antibody, IgM, V domains shown) VH: EVMLVESGGGLMKPGGSLKLSCAASEFTFSNYAMSWVRQTPEKRLEWVATISSGRSSTYYPDSVKGRFTISRDNAKNTLYLQMSSLRSEDTAMYYCAGLGRGNAMEYWGQGTSVTVSS VL: DIVMTQSPSSLTVTAGEKVTLSCKSSQSLLNSGNQKNYLTWYQQKPGQPPKLLIYWASTRESGVPDRFTGSGSGTDFILTINSVQAEDLAVYYCQNAYSYPFTFGSGTKLEIK
11 | 149% | 0.944 µg/mL | 242F5H2 (antibody, V domains shown) VH: EVMLVESGGGLVKPGGSLKLSCAASGFTFSSYTVSWVRQTPEKRLEWVATSIVGSTYTYFPDSVKGRFTISRDFAKNTLFLQMSSLRSEDTAMYYCSRLGRGNAMDYWGQGTSVSVSS VL: DIVMTQSPSSLTVTAGEKVTLNCRSSQSLLNSGNQKNYLTWYQQKPGQPPKLLIYWASTRESGVPDRFTGSGSGTDFTLTISSVQADDLAVYYCQNGYSYPFTFGSGTKLEIK

The next lines start with the binder.

Row | Binder | CDC % Relative activity | CDC EC50
12 | 239H12G9 (antibody, V domains shown) VH: QAYLQQSGAELVRSGASVKMSCKASGYTFTSHNIHWVKQTPGQGLEWIGYIYPGNGAPNYNQKFRGKATLTADTSSSTAYMQISSLTSEDSAVYFCARDYYGNSFVYWGQGTLVTVSA VL: DIVMTQSPSSLTEKAGEKVSMSCKSSQSLLNSGNQKNYLTWYQQKPGQPPKLLIYWASTRESGVPDRFTGSGSGTDFTLTISSVQAEDLAVYYCQNDYRYPFTFGAGTKLELK | 102% | 1.36 µg/mL
13 | 240A8E7 (antibody, V domains shown) VH: QAYLQQSGAELVRSGASVKMSCKASGYTFTNYNIHWVKQTPGQGLEWIGYIYPGNGDNYYNQKFKGKATLTADTSSSTAYMQISSLTSEDSAVYFCARDYYGNSFAYWGQGTLVTVSA VL: DVVMTQSPSSLTVTAGEKVTMNCKSSQSLLNSGNQKNYLTWYQQKPGQPPKMLIYWASTRESGVPDRFTGSGSGTDFTLTISSVQAEDLAIYYCQNDYYYPFTFGAGTKLELK | 120% | 1.16 µg/mL
14 | 240F8G2 (antibody, V domains shown) VH: QAYLQQSGAELVRSGASVKMSCKASGYTFTNYNIHWVKQTPGQGLEWIGYIYPGNGGNYYNQKFKGKATLTADTSSSTAYMQISSLTSEDSAVYFCARDYYGNSFAYWGQGTLVTVSA VL: DIVVTQSPSSLTVTAGEKVTMNCKSSQSLLNSGNQKNYLTWYQQKPGQPPKLLIYWASTRESGVPDRFTGSGSGTDFTLTISSVQAEDLAIYYCQNDYYYPLTFGAGTKLELK | 126% | 1.1 µg/mL
15 | 240D6F5 (antibody, V domains shown) VH: QAYLQQSGAELVRSGASVKMSCKASGYTFTSHNMHWVKQTPGQGLEWIGYIYPGNGGTNYNQKFKGKATLTADPSSSTAYMQINSLTSEDSAVYFCTRDYYGNSFAYWGQGTLVTVSA VL: DIVMTQSPSSLTEKAGERVSMSCKSSQSLFNSGNQKNYLTWYQQKPGQPPKLLIYWASTRESGVPDRFTGSGSGTDFTLTISSVQAEDLAVYYCQNDYRYPFTFGAGTKLELK | 119% | 1.17 µg/mL
